The target in this assay is APP蛋白 (amyloid precursor protein, APP). As to the kind of experiment: SPR.
Chain of APP蛋白 (amyloid precursor protein, APP) (chain, as listed by the source): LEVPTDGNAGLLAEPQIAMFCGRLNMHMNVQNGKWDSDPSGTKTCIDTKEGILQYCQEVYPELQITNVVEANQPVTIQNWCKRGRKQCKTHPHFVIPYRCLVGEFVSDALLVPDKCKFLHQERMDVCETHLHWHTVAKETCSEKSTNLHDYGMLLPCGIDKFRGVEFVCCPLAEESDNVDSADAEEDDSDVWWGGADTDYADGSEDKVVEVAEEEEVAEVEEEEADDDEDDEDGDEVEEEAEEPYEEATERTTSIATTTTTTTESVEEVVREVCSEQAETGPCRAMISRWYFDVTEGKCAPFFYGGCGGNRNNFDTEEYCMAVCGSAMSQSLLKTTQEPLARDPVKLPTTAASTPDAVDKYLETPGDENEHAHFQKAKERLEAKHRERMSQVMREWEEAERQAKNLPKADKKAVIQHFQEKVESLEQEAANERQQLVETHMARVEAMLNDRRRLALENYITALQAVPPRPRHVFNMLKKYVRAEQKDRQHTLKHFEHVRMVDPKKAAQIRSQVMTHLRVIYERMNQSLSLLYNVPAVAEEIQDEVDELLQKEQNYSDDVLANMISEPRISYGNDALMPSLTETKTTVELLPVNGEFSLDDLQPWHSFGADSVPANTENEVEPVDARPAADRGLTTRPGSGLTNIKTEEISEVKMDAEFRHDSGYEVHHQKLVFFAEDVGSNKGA

B1: 纳米抗体P2-10C (anti-APP nanobody P2-10C) (VHH)
VHH: DVQLQESGGGLVQPGGSLRLSCAASGIIFSGYYMSWVRQAPGKGPEWVSSINPSGSSTRYADSVKGRFTISRDNAKNTVYLQMYSLKPEDTALYYCSRSRDGLGDVRGQGTQVTVSS
notes: Monovalent alpaca VHH expressed from pET22b in E. coli BL21 and purified on Ni resin and by size exclusion; also called 抗APP的纳米抗体; 抗APP单域重链抗体
Consider B1, for which the Kd is 70 nM; the koff – broadly, the rate constant with which the complex falls apart – is 0.00921 s⁻¹; the kon (usually the second-order rate constant of association) turned out to be 130000 M⁻¹ s⁻¹.

Source of the values: patent CN115806612A (SHENZHEN KANGTI BIOMEDICAL TECH CO LTD, dated 2023).
